Data from article PMC2714321, “DNA binding kinetics of two response regulators, PlnC and PlnD, from the bacteriocin regulon of Lactobacillus plantarum C11”.

Assays:
Settings in all cases: protein: native; tags: N-terminal FLAG; chain copies: 2; label: biotin on forward strand; blunt
f-PlnD = target: T1, f-PlnD (Lactobacillus plantarum C11, UniProt Q48830 1-247); test: SPR; site 1 (KD1), heterogeneous ligand model; SPR (Biacore 3000, SA chip): 20 mM Tris-HCl pH 8.0, 100 mM NaCl, 5 mM MgCl2, 1 mM EDTA, 0.025% Triton X-100, 25°C; signals corrected by subtraction of control DNA (S8/rc) reference cell, no outcome reported for it
T1 sequence: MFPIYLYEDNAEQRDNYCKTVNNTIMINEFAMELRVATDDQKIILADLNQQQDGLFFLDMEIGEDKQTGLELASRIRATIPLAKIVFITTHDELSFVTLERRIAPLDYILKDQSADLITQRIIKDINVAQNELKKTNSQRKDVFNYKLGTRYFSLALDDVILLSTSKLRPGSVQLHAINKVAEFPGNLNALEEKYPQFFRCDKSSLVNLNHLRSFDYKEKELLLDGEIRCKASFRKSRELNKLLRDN

f-PlnC [1] = target: T2, f-PlnC (Lactobacillus plantarum C11, UniProt Q48829 1-247); test: SPR; site 1 (KD1), heterogeneous ligand model; Discussion gives 1e-7 range; SPR (Biacore 3000, SA chip): 20 mM Tris-HCl pH 8.0, 100 mM NaCl, 5 mM MgCl2, 1 mM EDTA, 0.025% Triton X-100, 25°C; signals corrected by subtraction of control DNA (S8/rc) reference cell, no outcome reported for it
T2 sequence: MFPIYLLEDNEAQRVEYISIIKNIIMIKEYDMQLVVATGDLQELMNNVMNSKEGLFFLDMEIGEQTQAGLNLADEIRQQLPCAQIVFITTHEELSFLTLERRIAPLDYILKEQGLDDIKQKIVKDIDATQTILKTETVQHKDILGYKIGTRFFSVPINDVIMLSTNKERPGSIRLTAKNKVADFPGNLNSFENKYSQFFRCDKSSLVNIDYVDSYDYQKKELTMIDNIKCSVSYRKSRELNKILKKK

f-PlnC [2] = target: T2, f-PlnC; test: SPR; site 1 (KD1), ka fitted locally; SPR (Biacore 3000, SA chip): 20 mM Tris-HCl pH 8.0, 100 mM NaCl, 5 mM MgCl2, 1 mM EDTA, 0.025% Triton X-100, 25°C; signals corrected by subtraction of control DNA (S8/rc) reference cell, no outcome reported for it
f-PlnC [3] = target: T2, f-PlnC; test: SPR; site 1 (KD1), heterogeneous ligand model; SPR (Biacore 3000, SA chip): 20 mM Tris-HCl pH 8.0, 100 mM NaCl, 5 mM MgCl2, 1 mM EDTA, 0.025% Triton X-100, 25°C; signals corrected by subtraction of control DNA (S8/rc) reference cell, no outcome reported for it
f-PlnC [4] = target: T2, f-PlnC; test: SPR; single site, Langmuir 1:1 model; SPR (Biacore 3000, SA chip): 20 mM Tris-HCl pH 8.0, 100 mM NaCl, 5 mM MgCl2, 1 mM EDTA, 0.025% Triton X-100, 25°C; signals corrected by subtraction of control DNA (S8/rc) reference cell, no outcome reported for it

B1: PplnA (dsDNA)
DNA 1: CATGGTGATTCACGTTTAAATTTAAAAAATGTACGTTAATAGAAATAATT
DNA 2: AATTATTTCTATTAACGTACATTTTTTAAATTTAAACGTGAATCACCATG
With B1 the Kd (f-PlnD) was 1.5 µM and the Kd (f-PlnC [1]) was 1500 nM.

B2: PplnG (dsDNA)
DNA 1: GCCTGATGAGGACATTTATCATAAAATTATGTACGTTAATAGATAGTTGG
DNA 2: CCAACTATCTATTAACGTACATAATTTTATGATAAATGTCCTCATCAGGC
Work on B2 yielded a Kd (f-PlnC [2]) of 170 nM and a Kd (f-PlnD) of 14 µM.

B3: PplnE (dsDNA)
DNA 1: ATTGGTATTTGACGTTAAGAGAACGTTTTTTTACTTTTATAATTTTTTCA
DNA 2: TGAAAAAATTATAAAAGTAAAAAAACGTTCTCTTAACGTCAAATACCAAT
For B3, the Kd (f-PlnC [3]) was 210 nM.

B4: PplnJ (dsDNA)
DNA 1: ACTTTCAAGTTACGTTAAATCGATTAAATAGTACGATAACAAATTTAAAA
DNA 2: TTTTAAATTTGTTATCGTACTATTTAATCGATTTAACGTAACTTGAAAGT
Binder B4 has a Kd (f-PlnD) of 12 µM.

B5: PplnM (dsDNA)
DNA 1: TGAATTATTGTACGATAATATCTAAAAATATTACGTTTATAAAAATATCG
DNA 2: CGATATTTTTATAAACGTAATATTTTTAGATATTATCGTACAATAATTCA
B5 gave a Kd (f-PlnD) of 0.56 µM and a Kd (f-PlnC [3]) of 380 nM.

B6: PplnAΔL (dsDNA)
DNA 1: CATGGTGATTTTAAAATTTATTTAAAAAATGTACGTTAATAGAAATAATT
DNA 2: AATTATTTCTATTAACGTACATTTTTTAAATAAATTTTAAAATCACCATG
Binder B6 has a Kd (f-PlnC [4]) of 300 nM.
